Results taken from the supplement of paper PMC9170038.

system: MS2 coat protein; experiment: apparent KD of MS2 coat protein, switch ON state; designed switch direction (-1 OFF switch, 1 ON switch): -1; higher = weaker reporter binding; details: FMN input: 0 or 200 uM; Eterna round: R93 (includes R88 designs)
Outline: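 Designed RNA switches were made by on-chip transcription from Illumina sequencing clusters and then titrated with SNAP-549-labelled MS2 coat protein. Twofold steps ran from 0.7 or 1.5 nM to 3 µM, each lasting 0.8–1.5 h early and 10–20 min late, in 100 mM Tris-HCl pH 7.5, 80 mM KCl, 4 mM MgCl2, without or with constant ligand. Apparent KD is the per-design median of normalised cluster binding-curve fits.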

Sequence	apparent KD of MS2 coat protein [nM]
AAGAGUAGAGGAUAUACAUAAAAAGAGUCGAAAGACUCGGGACAUGAGGAUCACCCAUGUAGAAGGCUACUCAA [Hyphema Seclusion Mod 62% 4]	98.6
AACAGUACAGGAUAUACAUGAGGAUCACCCAUGUAAAGGGAAAGUGGCGUACCACAAAGUAGAAGGGUACUGGA [Moding Maslow revisited (73) 5]	40.1
AGCACGUCAGGAUAUACGAAAAAAAAGGGAAACAACAAGGGACAUGAGGAUCACCCAUGUAGAAGGGACUAGCA [Diamond 97]	49.4
AAAAAAGCAGGAUAUACGAACAUGUCAAAAGACGUGAAGGGACAUGAGGAUCACCCAUGUAGAAGGGUUAAAAA [JL Stem Breaker 5]	198
AAGAAACAUGAGGAUCACCCAUGUGAGGAUAUCCAAGAAAGAAAGAAAGAAAGAAGAAGGAGAAGGCACAAAGG [Quintus Ostorius Scapula]	50.5
CACGUACAUGAGGAUCACCCAUGUUAGGAUAUGCCGGGUAAGAGAAAACAAAAAAUCAGCAGAAGGAACGAAAC [Bilbo Confounded 18 - Jieux - Exclusion 1]	28.2
AAGAAGCGAGGAUAUACAUGAAAGAAAGAAAAGAAAAGAAAACAUGAGGAUCACCCAUGUAGAAGGCGCAAGAA [EteRNA is fun!]	21.4
AAGAAGCGAGGAUAUACAUGAGGAUCACCCAUGUAAAAGAAAGAAGGGAAAGAGAAAAGUAGAAGGCGCAAGAA [Hedjkheperre-setpenre Takelot II]	70.7
AAAAAUCGAGGAUAUACAUGAGGAUCACCCAUGUUAGAAAAUGAUUACACAAAAGAAAGUAGAAGGCGAUAAAA [Ex 3 May 20]	27.9
CCAGAUGCAGGAUAUACAUGAGGAUCACCCAUGUGGCACACACCCACCCACAGCACCCGUAGAAGGGCAGCACG [Halfast on Cytosine - Jieux - Exclusion 3]	27
AACUAGUGAGGAUAUACAAGAAAAAAAAAAAAAAUAAAGGGACAUGAGGAUCACCCAUGUAGAAGGCACUAACA [Diamond 69]	37.7
AUAAAACAUGAGGAUCACCCAUGUGAGGAUAUGCUAAAAUAAAAUAAAAUAAAAUAAUGCAGAAGGCACAAAUA [Fancy Pants]	37.6
CUCAUGUCAGGAUAUCAGUAGUAAAAAAAAAAAAUUACUACUGAGAAGGGACAUGAGGAUCACCCAUGUACCUU [EX4 302: Super Stable 2]	25.4
AAAAAGCGAGGAUAUACGAGUCAAAGAAAAGACAAGGAGAAACAUGAGGAUCACCCAUGUAGAAGGCGCAAAAA [Fiskers exclusion D2]	21.8
AUAGUACAUGAGGAUCACCCAUGUCAGGAUAUGCGAAACGAAAAAAAAAAAAAGUGAAGUAGAAGGGACUAUAA [EX1 Malc#9]	29.8
AAAAAUGGAGGAUAUACAUGAGGAUCACCCAUGUGUAACUAUACAAAACACAAAAAAAGUAGAAGGCCAAAAAA [Gilly Gone Silly 7 - Jieux - Exclusion 3]	20.1
AACUGACAUGAGGAUCACCCAUGUCAGGAUAUGCUUCAUAAAAAGAAAUAAAAAUGAUGCAGAAGGGAUAUGGG [Design 34 :P Sub-opt 10]	24.6
AAAUAGUUAGGAUAUACAUGAGGAUCACCCAUGUGCACUUAUGGAGAAUAGUGUAAUGGUAGAAGGGACUAAAA [EX2 Malc#23]	82.1
ACGUCGGGAGGAUAUACAUGAGGAUCACCCAUGUAAAGCGGGAAAGACGUUUAGUCGAGUAGAAGGCCUGAAGU [JR_Exc003_Sub1709]	26.1
GGAAAACAUGAGGAUCACCCAUGUGAGGAUAUCGAUGUCCAAACCAAAGUGCGGGACUCGAGAAGGCACUUGGA [salish99-ex1-37]	45.9
AUUAUGUCAGGAUAUCAGUAGUAAAAAAAAAAAAUUACUACUGAGAAGGGACAUGAGGAUCACCCAUGUCAAAA [EX4 308: Super Stable 8]	39
AAAUAACAUGAGGAUCACCCAUGUUAGGAUAUCUAAAUGGUGUAAACACCAGAAGAUGAGAGAAGGGACGUGGA [Enlalees]	17.9

Sequence	apparent KD of MS2 coat protein [nM]
GAAGAACAUGAGGAUCACCCAUGUCAGGAUAUACAGAAGGGAAUAAUAUAACCUGAAAGUAGAAGGGACAAGAA [Ex 1 May 43]	33.9
AGAAAACAUGAGGAUCACCCAUGUGAGGAUAUCGAUGUCCAAAAAAAAGUGCGGGACUCGAGAAGGCACUUGGG	38.9
AAAAAACAUGAGGAUCACCCAUGUAAGGAUAUGCUAAAAAACACGGAAAAACGUGAUAGCAGAAGGUACAAAAG [Mat - Exclusion 1 - Eli mod - D87]	25.5
AAGAACGAAGGAUAUACAUGAGGAUCACCCAUGUAAAAGAAAGAGGGAAAAGAGAAAAGUAGAAGGUCGAAGAA [Ptolemy VIII Euergetes II]	20.4
AGGGAGUAAGGAUAUGCAUAUAAUGAAGAGAAAGAAAAGAAGCAGAAGGUACAUGAGGAUCACCCAUGUAAAAA [milkweed 2]	28.4
AAAAAGUGAGGAUAUACGUUGAAAAAAAAAAAAAAAAAGGCGUAGAAGGCACAUGAGGAUCACCCAUGUAAAAA [Ex4 Malc#5]	56
AAAAAAAAAGGAUAUACAGGAGGUAAGGUCGAAAAAAAAAAACAUGAGGAUCACCCAUGUAGAAGGUUUAAAAA [Excls2-VIII]	27
GGAUGUGUAGGAUAUACAUGAGGAUCACCCAUGUGAGAGAAAAAAGUGAGAAAGAAAAGUAGAAGGACGUGUCG [salish99-ex3-89]	41
CGUCCACAUGAGGAUCACCCAUGUUAGGAUAUCUAUACUAAAUACAAAACCCAAGUCAAGAGAAGGAGCAGGGC [Teteeresve]	13.9
AAAAAACAUGAGGAUCACCCAUGUGAGGAUAUGACGUAAAUAAAGAAAGAAGAAAUCGUCAGAAGGCACACCUA [Disincluded 2 (MS2 Riboswitches)]	25.7
AAAAAGUGAGGAUAUGUCAAAGGUCACGAAAGUGACAAAGGACAGAAGGCACAUGAGGAUCACCCAUGUGGAAA [Fiskers Exclusion 4D1 65% - Early + late G segment 3]	27.3
AGUGAGUGAGGAUAUGCUAGAAGAAUAAAAGAAAUAACGUAGCAGAAGGCACAUGAGGAUCACCCAUGUACACA [May 66]	25.6
AGCUAGUCAGGAUAUACGAGAAAGAAAGAAGACGUGAAGGGACAUGAGGAUCACCCAUGUAGAAGGGACUAGCA [Diamond 26]	30.3
AAAAAUGGAGGAUAUACAUGAGGAUCACCCAUGUGUAAAAAAAAUUACACAAAAGAAAGUAGAAGGCCAUAAAG [Mat - Exclusion 3 - Mayanna mod - D108]	59.3
AAAAAUCGAGGAUAUACAUGAGGAUCACCCAUGUCAAAAAAUGACUACACAAAAGAAAGUAGAAGGCGAUAAAA [Ex 3 May 17]	28.5
AACAGUACAGGAUAUACAUGAGGAUCACCCAUGUGAGAAACCAGUGGCGUACCACAAAGUAGAAGGGUACUGGA [Moding Maslow Revisited (73) 28]	42.4
AAAAAGUCAGGAUAUGCGAAGGCGUCUGAUAGACGAGGCUAGCAGAAGGGACAUGAGGAUCACCCAUGUAAAGA [Mat - Exclusion 4 - D82]	50
AAAAAGUGAGGAUAUGGUAAAAAAAAAAAAAAAAAAAACCUCCAGAAGGCACAUGAGGAUCACCCAUGUAAAAA [Jolly's Folly 2 - Jieux - Exclusion 4]	75.8
AGAAAGUCAGGAUAUACGAAAAAAAAGGGAAACAACAAGGGACAUGAGGAUCACCCAUGUAGAAGGGACAAGAA [Diamond 98]	92.8
AAGGUAUAAGGAUAUGCAUAGAUACAGACACAUGUUCAAGUACAUGAGGAUCACCCAUGUAGAAGGUAUAUAUA [AJ 12]	32.2
AAAAUGUCAGGAUAUGUAGCAUGAUACGAAAGUAUCAUGCUACAGAAGGGACAUGAGGAUCACCCAUGUGAUCA [Ex4: 939]	59.7
AGUUGGCGAGGAUAUACAUGAGGAUCACCCAUGUGAAAGAAAAAAGUGAAAAAGCAAAGUAGAAGGCGCUGACA [73%, Moding Norbert Elias, 5]	34.9
